From patent US20260209350A1 (Alector, published 2026)
Read-outs that look alike come from different tables or passages of the source.

Legend:
[1] = target: T1, human monomeric His tagged TREM2 protein (human, UniProt Q9NZC2 19-174); test: ForteBio or MSD-SET, monovalent
T1 construct: also called hTREM2-HIS
T1 sequence: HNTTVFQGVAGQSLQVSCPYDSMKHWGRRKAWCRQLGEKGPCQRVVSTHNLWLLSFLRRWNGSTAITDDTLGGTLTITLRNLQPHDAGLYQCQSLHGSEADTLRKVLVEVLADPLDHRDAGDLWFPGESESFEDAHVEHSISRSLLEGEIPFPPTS
Description: (§1) The binding affinity of each anti-TREM2 antibody was determined by measuring their KD by ForteBio or MSD-SET. […] Briefly, ForteBio affinity measurements were performed by loading IgGs on-line onto AHQ sensors. Sensors were equilibrated off-line in assay buffer for 30 min and then monitored on-line for 60 seconds for baseline establishment. Sensors with loaded IgGs were exposed to 100 nM antigen for 5 minutes, then transferred to assay buffer for 5 min for off-rate measurement. Kinetics were analyzed using the 1:1 binding model.
Solution equilibrium titrations (SET) were performed in PBS+0.1% IgG-Free BSA (PBSF) with antigen held constant at 50 pM and incubated with 3- to 5-fold serial dilutions of antibody starting at 10 nM. Antibodies (20 nM in PBS) were coated onto standard bind MSD-ECL plates overnight at 4° C. or at room temperature for 30 min. Plates were then blocked for 30 min with shaking at 700 rpm, followed by three washes with wash buffer (PBSF+0.05% Tween 20). SET samples were applied and incubated on the plates for 150s with shaking at 700 rpm followed by one wash. Antigen captured on a plate was detected with 250 ng/mL sulfotag-labeled streptavidin in PBSF by incubation on the plate for 3 min. The plates were washed three times with wash buffer and then read on the MSD Sector Imager 2400 instrument using 1× Read Buffer T with surfactant. […]

[2] = target: T1, human monomeric His tagged TREM2 protein; test: ForteBio or MSD-SET, monovalent; remark: listed apart in the source
[3] = target: T2, human TREM2 Fc fusion protein (human, UniProt Q9NZC2 19-174); test: ForteBio or MSD-SET, avid
T2 construct: also called hTREM2-Fc; not shown: Fc part not specified
T2 sequence: T1 sequence

[4] = target: T3, mouse TREM2 Fc fusion protein (mouse, UniProt Q99NH8 19-171); test: ForteBio or MSD-SET, avid
T3 construct: also called mTREM2-Fc; not shown: Fc part not specified
T3 sequence (looked up): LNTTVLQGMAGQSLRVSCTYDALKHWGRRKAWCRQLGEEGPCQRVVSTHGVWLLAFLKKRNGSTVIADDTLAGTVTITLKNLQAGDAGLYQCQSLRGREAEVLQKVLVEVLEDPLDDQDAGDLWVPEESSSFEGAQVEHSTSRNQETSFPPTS

[5] = target: T2, human TREM2 Fc fusion protein; test: ForteBio or MSD-SET, avid; remark: listed apart in the source
Description: as §1
(§2) Solution equilibrium titrations (SET) were performed in PBS+0.1% IgG-Free BSA (PBSF) with antigen held constant at 50 pM and incubated with 3- to 5-fold serial dilutions of antibody starting at 10 nM. Antibodies (20 nM in PBS) were coated onto standard bind MSD-ECL plates overnight at 4° C. or at room temperature for 30 min. Plates were then blocked for 30 min with shaking at 700 rpm, followed by three washes with wash buffer (PBSF+0.05% Tween 20). SET samples were applied and incubated on the plates for 150s with shaking at 700 rpm followed by one wash. Antigen captured on a plate was detected with 250 ng/mL sulfotag-labeled streptavidin in PBSF by incubation on the plate for 3 min. The plates were washed three times with wash buffer and then read on the MSD Sector Imager 2400 instrument using 1× Read Buffer T with surfactant. The percent free antigen was plotted as a function of titrated antibody in Prism and fit to a quadratic equation to extract the KD. To improve throughput, liquid handling robots were used throughout MSD-SET experiments, including SET sample preparation.

[6] = target: T3, mouse TREM2 Fc fusion protein; test: ForteBio or MSD-SET, avid; remark: listed apart in the source
Description: as §1, §2

[7] = target: T4, mouse TREM2 on cells (mouse, UniProt Q99NH8 19-227); test: FACS, mTrem2 cells
T4 construct: whole, on cells; Used for the recombinant protein on BWZ/BW cells (with mouse DAP12) and for the native protein on mouse macrophages and dendritic cells; the cell type stands under assay; also called mTREM2; mTrem2
T4 sequence (looked up): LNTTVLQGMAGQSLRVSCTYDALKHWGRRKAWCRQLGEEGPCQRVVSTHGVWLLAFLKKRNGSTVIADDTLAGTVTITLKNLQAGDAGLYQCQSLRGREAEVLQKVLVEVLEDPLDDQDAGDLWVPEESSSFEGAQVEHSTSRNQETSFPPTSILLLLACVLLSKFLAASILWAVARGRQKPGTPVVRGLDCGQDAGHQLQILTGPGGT

Kd [1]: 5.75 nM
Kd [2]: 5.75 nM
Kd [3]: 1.51 nM
Kd [4]: 0.0896 nM
Kd [5]: 1.51 nM
Kd [6]: 0.0896 nM
MFI [7]: 15600 MFI
B1: Ab52 (antibody, human IgG1, V domains shown)
VH: QVQLVQSGAEVKKPGASVKVSCKASGYTFTSYYIHWVRQAPGQGLEWMGIINPSGGSTSYAQKFQGRVTMTRDTSTSTVYMELSSLRSEDTAVYYCAREADDSSGYPLGLDVWGQGTMVTVSS
VL: EIVMTQSPATLSVSPGERATLSCRASQSVSSNLAWYQQKPGQAPRLLIYGASTRATGIPARFSGSGSGTEFTLTISSLQSEDFAVYYCQQVNSLPPTFGGGTKVEIK
notes: human IgG1; also called antibody 52
